Measured values reported in patent US20090325259A1, “USE OF ADHESION MOLECULES AS BOND STRESS-ENHANCED NANOSCALE BINDING SWITCHES” (priority 2002, published 2009).

Legend:
[1] = target: Monomannosylated BSA (monomannose conjugated to bovine serum albumin) (bovine) (UniProt P02769)
[2] = target: Monomannosylated BSA (monomannose conjugated to bovine serum albumin) (bovine) (UniProt P02769); test: parallel plate flow chamber; new bacteria appearing on 1Man-BSA surface

Monomannosylated BSA (monomannose conjugated to bovine serum albumin) (bovine), sequence (P02769 25-607 limits assumed): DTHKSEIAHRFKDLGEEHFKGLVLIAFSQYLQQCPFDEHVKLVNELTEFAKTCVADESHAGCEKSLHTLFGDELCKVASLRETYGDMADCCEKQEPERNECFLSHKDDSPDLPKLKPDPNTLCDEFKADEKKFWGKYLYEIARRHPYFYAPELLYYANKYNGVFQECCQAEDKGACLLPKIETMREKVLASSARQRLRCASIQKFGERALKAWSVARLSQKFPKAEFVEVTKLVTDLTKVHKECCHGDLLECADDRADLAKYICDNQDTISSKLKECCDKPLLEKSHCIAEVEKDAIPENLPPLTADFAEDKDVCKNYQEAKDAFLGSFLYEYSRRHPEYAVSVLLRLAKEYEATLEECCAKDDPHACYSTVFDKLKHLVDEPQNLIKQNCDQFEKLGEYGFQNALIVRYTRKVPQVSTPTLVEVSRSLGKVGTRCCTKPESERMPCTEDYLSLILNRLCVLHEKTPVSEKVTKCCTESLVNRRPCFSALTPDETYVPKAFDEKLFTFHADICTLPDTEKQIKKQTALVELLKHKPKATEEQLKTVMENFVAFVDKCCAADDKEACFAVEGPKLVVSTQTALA

Substance: FimH-f18 (FimH adhesin variant of intestinal E. coli strain F18), in type I fimbriae on recombinant E. coli (from UniProt P08191 22-300)
- first-order rate constant of the decline of stationary bacteria [1]: 3 s⁻¹
- initial attachments per minute in the field of view, at 0.5 dynes/cm^2 (attachments per minute) [2]: 102
- initial attachments per minute in the field of view, at 3.6 dynes/cm^2 (attachments per minute) [2]: 64
- initial attachments per minute in the field of view, at 7 dynes/cm^2 (attachments per minute) [2]: 32
